Assay results: publication PMC2064523 (The Journal of Cell Biology, 2006)

What was measured:
[1] = molecular target: Vh1 domain of human vinculin (residues 1–258) (human) (UniProt P18206); assay: native gel or EMSA
[2] = molecular target: Human full-length vinculin (residues 1–1,066) (human) (UniProt P18206); assay: SPR
[3] = molecular target: Vh1 domain of human vinculin (residues 1–258) (human) (UniProt P18206); assay: SPR
[4] = molecular target: T1, Vh1 domain of human vinculin (residues 1–258) (human, UniProt P18206 1-258); assay: SPR
T1 sequence (looked up): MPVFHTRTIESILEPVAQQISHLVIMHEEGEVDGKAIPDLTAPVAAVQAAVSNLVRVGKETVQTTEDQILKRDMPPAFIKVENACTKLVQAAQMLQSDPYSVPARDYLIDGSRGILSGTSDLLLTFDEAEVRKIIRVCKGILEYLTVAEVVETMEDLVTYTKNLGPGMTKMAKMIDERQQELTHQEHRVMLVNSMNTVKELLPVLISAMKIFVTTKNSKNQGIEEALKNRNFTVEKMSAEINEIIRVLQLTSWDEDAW

[5] = molecular target: T1, Vh1 domain of human vinculin (residues …); assay: native gel or EMSA
[6] = molecular target: T1, Vh1 domain of human vinculin (residues …); assay: crystal structure

Molecule: IpaA-Cterm (C-terminal domain of IpaA, residues 559–633) (from UniProt P18010 559-633) (domain or fragment)
- stoichiometry N [1]: 1
- Kd [2]: 35.2 pM
- Kd [3]: 0.0062 pM

Molecule: IpaA-VBS2-Y567I peptide
- Kd [3]: 15000 pM

B1: IpaA-VBS2 peptide (IpaA residues 565–587) (peptide, UniProt P18010 565-587, looked up)
peptide: AIYEKAKEVSSALSKVLSKIDDT
- Kd [4]: 6610 pM

B2: IpaA-VBS2-K569A peptide (peptide)
peptide: AIYEAAKEVSSALSKVLSKIDDT
- Kd [4]: 530 pM

B3: Vt domain of human vinculin (residues 879–1,066) (domain or fragment, UniProt P18206-2 879-1066, looked up)
chain: EEKDEEFPEQKAGEVINQPMMMAARQLHDEARKWSSKGNDIIAAAKRMALLMAEMSRLVRGGSGTKRALIQCAKDIAKASDEVTRLAKEVAKQCTDKRIRTNLLQVCERIPTISTQLKILSTVKATMLGRTNISDEESEQATEMLVHNAQNLMQSVKETVREAEAASIKIRTDAGFTLRWVRKTPWYQ
- binding result [5]: binds

B4: IpaA-VBS peptide (IpaA residues 611–633) (peptide, UniProt P18010 611-633, looked up)
peptide: NIYKAAKDVTTSLSKVLKNINKD
- Kd [4]: 110 pM

B5: IpaA-VBS-Y613I peptide (peptide)
peptide: NIIKAAKDVTTSLSKVLKNINKD
- Kd [4]: 270 pM

B6: IpaA residues 602–633 (containing the IpaA-VBS), peptide of the crystal structure (peptide, UniProt P18010 602-633, looked up)
peptide: NNDITAENNNIYKAAKDVTTSLSKVLKNINKD
- binding result [6]: binds
